From IntAct's records for PubMed 14668441

Molecular target: arnt_human ARNT (UniProt P27540)

Endothelial PAS domain-containing protein 1 (Homo sapiens), Q99814 Q322E;M338E;Y342T
effect of a mutation on the interaction: disrupting interaction strength
